One protein from paper PMC10976854 (Cell, 2024) can be followed below.

The data set concerns the molecule itself. Nature of the data set: crystal structure.

B1: mZP2-N2N3 (mouse ZP2 NTR ΔN1 construct) (domain or fragment, UniProt P20239 135-360, looked up)
chain: PAIQAETHEISEIVVCRRDLISFSFPQLFSRLADENQNVSEMGWIVKIGNGTRAHILPLKDAIVQGFNLLIDSQKVTLHVPANATGIVHYVQESSYLYTVQLELLFSTTGQKIVFSSHAICAPDLSVACNATHMTLTIPEFPGKLESVDFGQWSIPEDQWHANGIDKEATNGLRLNFRKSLLKTKPSEKCPFYQFYLSSLKLTFYFQGNMLSTVIDPECHCESPVS
For the protein B1, the binding result was “binds”.
